# Target: HLA-A*1101 (human)
# Test: iTopia affinity
row,Binder,ED50
1,KEIFSCIKK [cdr2 427-435 KEIFSCIKK],7 µM
2,RQMNEQHAK [cdr2 74-82 RQMNEQHAK],11 µM
3,LQSQVEELK [cdr2 129-137 LQSQVEELK],24 µM
4,PPEYKALFK [cdr2 419-427 PPEYKALFK],26 µM
5,SGWELASVN [cdr2 401-409 SGWELASVN],31 µM
6,LTVPESHRK [cdr2 296-304 LTVPESHRK],4.8 µM
7,KVKYEELLK [cdr2 357-365 KVKYEELLK],1.2 µM
8,GATGAYRAR [cdr2 238-246 GATGAYRAR],19 µM
9,LQEIEYLTK [cdr2 60-68 LQEIEYLTK],62 µM
10,ADSKASQQK [cdr2 103-111 ADSKASQQK],56 µM
11,IFSCIKKTK [cdr2 429-437 IFSCIKKTK],12 µM
12,ESHRKPLKR [cdr2 300-308 ESHRKPLKR],26 µM
13,GQGRRSPGK [cdr2 140-148 GQGRRSPGK],2 µM
14,VQTSRAAAK [cdr2 379-387 VQTSRAAAK],4.6 µM
15,LTKQVELLR [cdr2 66-74 LTKQVELLR],7.9 µM
16,SPTTPPEYK [cdr2 415-423 SPTTPPEYK],20 µM
17,QLGATGAYR [cdr2 236-244 QLGATGAYR],27 µM
18,SLAGSDIVK [cdr2 317-325 SLAGSDIVK],2.1 µM
19,PDSLYVPFK [cdr2 276-284 PDSLYVPFK],25 µM

# Target: HLA-A*2402 (human)
# Test: iTopia affinity
row,Binder,ED50
1,VPDSLYVPF [cdr2 275-283 VPDSLYVPF],9.2 µM
2,ECLQTNIDH [cdr2 120-128 ECLQTNIDH],18 µM
3,TVTMLQAQL [cdr2 201-209 TVTMLQAQL],43 µM
4,TPPEYKALF [cdr2 418-426 TPPEYKALF],11 µM
5,IFSCIKKTK [cdr2 429-437 IFSCIKKTK],8.6 µM

# Target: T1, HLA-A*0201 (human)
# T1 construct: also called HLA-A2.1; HLA A2.1
# Test: iTopia binding;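 also: each peptide tested for binding to HLA-A2 molecules immobilized on plates, using a commercial screening kit run per its supplied protocol and reagents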
row,Binder,binding vs positive control
1,ECLQTNIDH [cdr2 120-128 ECLQTNIDH],> 30%
2,LVLKENSEL [cdr2 225-233 LVLKENSEL],> 30%
3,TVTMLQAQL [cdr2 201-209 TVTMLQAQL],> 30%

# Target: HLA-A*0301 (human)
# Test: iTopia affinity
row,Binder,ED50
1,KEIFSCIKK [cdr2 427-435 KEIFSCIKK],13 µM
2,RQMNEQHAK [cdr2 74-82 RQMNEQHAK],58 µM
3,CIRRAKAVK [cdr2 331-339 CIRRAKAVK],14 µM
4,HPFVNGVEK [cdr2 265-273 HPFVNGVEK],34 µM
5,LTVPESHRK [cdr2 296-304 LTVPESHRK],26 µM
6,ESHRKPLKR [cdr2 300-308 ESHRKPLKR],19 µM
7,GQGRRSPGK [cdr2 140-148 GQGRRSPGK],7.8 µM
8,PAPSFACLK [cdr2 154-162 PAPSFACLK],11 µM
9,VQTSRAAAK [cdr2 379-387 VQTSRAAAK],18 µM
10,QLGATGAYR [cdr2 236-244 QLGATGAYR],15 µM
11,SLAGSDIVK [cdr2 317-325 SLAGSDIVK],11 µM

# Target: HLA-B*0702 (human)
# Test: iTopia off-rate
row,Binder,t1/2
1,KPAPSFACL [cdr2 153-161 KPAPSFACL],1.29
2,VPDSLYVPF [cdr2 275-283 VPDSLYVPF],0.58
3,TSRAAAKDL [cdr2 381-389 TSRAAAKDL],1.19
4,ENSELEQQL [cdr2 229-237 ENSELEQQL],1.13
5,KQVELLRQM [cdr2 68-76 KQVELLRQM],1.15
6,LAAELGKTL [cdr2 30-38 LAAELGKTL],0.5
7,LVLKENSEL [cdr2 225-233 LVLKENSEL],0.49
8,VPESHRKPL [cdr2 298-306 VPESHRKPL],1.33
9,TPPEYKALF [cdr2 418-426 TPPEYKALF],1.26
10,EVAEMRQML [cdr2 253-261 EVAEMRQML],0.74
11,RTKYRSLSS [cdr2 444-452 RTKYRSLSS],1.83

# Target: HLA-B*0702 (human)
# Test: iTopia net score
row,Binder,iScore
1,KPAPSFACL [cdr2 153-161 KPAPSFACL],0.205
2,VPDSLYVPF [cdr2 275-283 VPDSLYVPF],0.068
3,TSRAAAKDL [cdr2 381-389 TSRAAAKDL],0.067
4,ENSELEQQL [cdr2 229-237 ENSELEQQL],0.05
5,KQVELLRQM [cdr2 68-76 KQVELLRQM],0.055
6,LAAELGKTL [cdr2 30-38 LAAELGKTL],0.052
7,LVLKENSEL [cdr2 225-233 LVLKENSEL],0.054
8,VPESHRKPL [cdr2 298-306 VPESHRKPL],0.22
9,TPPEYKALF [cdr2 418-426 TPPEYKALF],0.027
10,EVAEMRQML [cdr2 253-261 EVAEMRQML],0.077
11,RTKYRSLSS [cdr2 444-452 RTKYRSLSS],0.031

# Target: T1, HLA-A*0201
# Test: iTopia off-rate
row,Binder,t1/2
1,ECLQTNIDH [cdr2 120-128 ECLQTNIDH],5.4
2,LVLKENSEL [cdr2 225-233 LVLKENSEL],0.8
3,TVTMLQAQL [cdr2 201-209 TVTMLQAQL],0.6

# Target: HLA-A*1101 (human)
# Test: iTopia off-rate
row,Binder,t1/2
1,KEIFSCIKK [cdr2 427-435 KEIFSCIKK],3.74
2,RQMNEQHAK [cdr2 74-82 RQMNEQHAK],3.85
3,LQSQVEELK [cdr2 129-137 LQSQVEELK],1.1
4,PPEYKALFK [cdr2 419-427 PPEYKALFK],0.31
5,SGWELASVN [cdr2 401-409 SGWELASVN],0.8
6,LTVPESHRK [cdr2 296-304 LTVPESHRK],4.59
7,KVKYEELLK [cdr2 357-365 KVKYEELLK],2.26
8,GATGAYRAR [cdr2 238-246 GATGAYRAR],0.3
9,LQEIEYLTK [cdr2 60-68 LQEIEYLTK],0.68
10,ADSKASQQK [cdr2 103-111 ADSKASQQK],0.51
11,IFSCIKKTK [cdr2 429-437 IFSCIKKTK],0.92
12,ESHRKPLKR [cdr2 300-308 ESHRKPLKR],0.35
13,GQGRRSPGK [cdr2 140-148 GQGRRSPGK],2.8
14,VQTSRAAAK [cdr2 379-387 VQTSRAAAK],1.5
15,LTKQVELLR [cdr2 66-74 LTKQVELLR],1.56
16,SPTTPPEYK [cdr2 415-423 SPTTPPEYK],1.78
17,QLGATGAYR [cdr2 236-244 QLGATGAYR],0.2
18,SLAGSDIVK [cdr2 317-325 SLAGSDIVK],0.74
19,PDSLYVPFK [cdr2 276-284 PDSLYVPFK],0.41

# Target: HLA-A*1101 (human)
# Test: iTopia net score
row,Binder,iScore
1,KEIFSCIKK [cdr2 427-435 KEIFSCIKK],0.392
2,RQMNEQHAK [cdr2 74-82 RQMNEQHAK],0.396
3,LQSQVEELK [cdr2 129-137 LQSQVEELK],0.103
4,PPEYKALFK [cdr2 419-427 PPEYKALFK],0.058
5,SGWELASVN [cdr2 401-409 SGWELASVN],0.059
6,LTVPESHRK [cdr2 296-304 LTVPESHRK],0.558
7,KVKYEELLK [cdr2 357-365 KVKYEELLK],0.22
8,GATGAYRAR [cdr2 238-246 GATGAYRAR],0.056
9,LQEIEYLTK [cdr2 60-68 LQEIEYLTK],0.048
10,ADSKASQQK [cdr2 103-111 ADSKASQQK],0.054
11,IFSCIKKTK [cdr2 429-437 IFSCIKKTK],0.088
12,ESHRKPLKR [cdr2 300-308 ESHRKPLKR],0.063
13,GQGRRSPGK [cdr2 140-148 GQGRRSPGK],0.633
14,VQTSRAAAK [cdr2 379-387 VQTSRAAAK],0.343
15,LTKQVELLR [cdr2 66-74 LTKQVELLR],0.238
16,SPTTPPEYK [cdr2 415-423 SPTTPPEYK],0.136
17,QLGATGAYR [cdr2 236-244 QLGATGAYR],0.038
18,SLAGSDIVK [cdr2 317-325 SLAGSDIVK],0.283
19,PDSLYVPFK [cdr2 276-284 PDSLYVPFK],0.063

# Target: HLA-A*0301 (human)
# Test: iTopia off-rate
row,Binder,t1/2
1,KEIFSCIKK [cdr2 427-435 KEIFSCIKK],5.82
2,RQMNEQHAK [cdr2 74-82 RQMNEQHAK],3.69
3,CIRRAKAVK [cdr2 331-339 CIRRAKAVK],6.47
4,HPFVNGVEK [cdr2 265-273 HPFVNGVEK],0.61
5,LTVPESHRK [cdr2 296-304 LTVPESHRK],1.53
6,ESHRKPLKR [cdr2 300-308 ESHRKPLKR],1.49
7,GQGRRSPGK [cdr2 140-148 GQGRRSPGK],1.64
8,PAPSFACLK [cdr2 154-162 PAPSFACLK],2.19
9,VQTSRAAAK [cdr2 379-387 VQTSRAAAK],2.55
10,QLGATGAYR [cdr2 236-244 QLGATGAYR],0.92
11,SLAGSDIVK [cdr2 317-325 SLAGSDIVK],0.88

# Target: T1, HLA-A*0201
# Test: iTopia affinity
row,Binder,ED50
1,ECLQTNIDH [cdr2 120-128 ECLQTNIDH],30 µM
2,LVLKENSEL [cdr2 225-233 LVLKENSEL],7 µM
3,TVTMLQAQL [cdr2 201-209 TVTMLQAQL],3 µM

# Target: HLA-A*0301 (human)
# Test: iTopia net score
row,Binder,iScore
1,KEIFSCIKK [cdr2 427-435 KEIFSCIKK],0.231
2,RQMNEQHAK [cdr2 74-82 RQMNEQHAK],0.147
3,CIRRAKAVK [cdr2 331-339 CIRRAKAVK],0.436
4,HPFVNGVEK [cdr2 265-273 HPFVNGVEK],0.05
5,LTVPESHRK [cdr2 296-304 LTVPESHRK],0.128
6,ESHRKPLKR [cdr2 300-308 ESHRKPLKR],0.147
7,GQGRRSPGK [cdr2 140-148 GQGRRSPGK],0.258
8,PAPSFACLK [cdr2 154-162 PAPSFACLK],0.122
9,VQTSRAAAK [cdr2 379-387 VQTSRAAAK],0.279
10,QLGATGAYR [cdr2 236-244 QLGATGAYR],0.122
11,SLAGSDIVK [cdr2 317-325 SLAGSDIVK],0.14

# Target: T1, HLA-A*0201
# Test: iTopia net score
row,Binder,iScore
1,ECLQTNIDH [cdr2 120-128 ECLQTNIDH],0.178
2,LVLKENSEL [cdr2 225-233 LVLKENSEL],0.119
3,TVTMLQAQL [cdr2 201-209 TVTMLQAQL],0.132

# Target: HLA-B*0702 (human)
# Test: iTopia affinity
row,Binder,ED50
1,KPAPSFACL [cdr2 153-161 KPAPSFACL],5.5 µM
2,VPDSLYVPF [cdr2 275-283 VPDSLYVPF],47 µM
3,TSRAAAKDL [cdr2 381-389 TSRAAAKDL],18 µM
4,ENSELEQQL [cdr2 229-237 ENSELEQQL],93 µM
5,KQVELLRQM [cdr2 68-76 KQVELLRQM],180 µM
6,LAAELGKTL [cdr2 30-38 LAAELGKTL],33 µM
7,LVLKENSEL [cdr2 225-233 LVLKENSEL],34 µM
8,VPESHRKPL [cdr2 298-306 VPESHRKPL],9.9 µM
9,TPPEYKALF [cdr2 418-426 TPPEYKALF],100 µM
10,EVAEMRQML [cdr2 253-261 EVAEMRQML],18 µM
11,RTKYRSLSS [cdr2 444-452 RTKYRSLSS],73 µM

# Target: HLA-A*2402 (human)
# Test: iTopia off-rate
row,Binder,t1/2
1,VPDSLYVPF [cdr2 275-283 VPDSLYVPF],1.26
2,ECLQTNIDH [cdr2 120-128 ECLQTNIDH],0.72
3,TVTMLQAQL [cdr2 201-209 TVTMLQAQL],0.59
4,TPPEYKALF [cdr2 418-426 TPPEYKALF],0.46
5,IFSCIKKTK [cdr2 429-437 IFSCIKKTK],1.16

# Target: HLA-A*2402 (human)
# Test: iTopia net score
row,Binder,iScore
1,VPDSLYVPF [cdr2 275-283 VPDSLYVPF],0.116
2,ECLQTNIDH [cdr2 120-128 ECLQTNIDH],0.095
3,TVTMLQAQL [cdr2 201-209 TVTMLQAQL],0.062
4,TPPEYKALF [cdr2 418-426 TPPEYKALF],0.084
5,IFSCIKKTK [cdr2 429-437 IFSCIKKTK],0.108

# Source: patent publication US20090208538A1 (ROCKEFELLER UNIVERSITY, published 2009)
